Legend:
[1] = target: T1, 6xHis-MtFtsZ (Mycobacterium tuberculosis FtsZ) (Mycobacterium tuberculosis, UniProt P9WN95 1-379); experiment: pull-down; settings: both partners purified
T1 construct: also called MtZ
T1 sequence: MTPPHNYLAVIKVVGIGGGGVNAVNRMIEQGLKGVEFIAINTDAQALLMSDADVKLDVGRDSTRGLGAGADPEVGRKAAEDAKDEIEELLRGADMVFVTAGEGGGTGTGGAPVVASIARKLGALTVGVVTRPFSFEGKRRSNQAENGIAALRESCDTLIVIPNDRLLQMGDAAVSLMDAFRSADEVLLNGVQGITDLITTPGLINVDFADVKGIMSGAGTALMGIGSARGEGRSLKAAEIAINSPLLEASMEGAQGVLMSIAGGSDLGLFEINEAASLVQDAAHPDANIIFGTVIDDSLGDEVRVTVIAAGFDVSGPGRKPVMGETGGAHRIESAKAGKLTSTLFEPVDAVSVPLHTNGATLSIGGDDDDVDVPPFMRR

[2] = target: T2, 6xHis-EcFtsZ (FtsZ of E. coli) (E. coli, UniProt P0A9A6 1-383); experiment: pull-down; settings: both partners purified
T2 sequence (looked up): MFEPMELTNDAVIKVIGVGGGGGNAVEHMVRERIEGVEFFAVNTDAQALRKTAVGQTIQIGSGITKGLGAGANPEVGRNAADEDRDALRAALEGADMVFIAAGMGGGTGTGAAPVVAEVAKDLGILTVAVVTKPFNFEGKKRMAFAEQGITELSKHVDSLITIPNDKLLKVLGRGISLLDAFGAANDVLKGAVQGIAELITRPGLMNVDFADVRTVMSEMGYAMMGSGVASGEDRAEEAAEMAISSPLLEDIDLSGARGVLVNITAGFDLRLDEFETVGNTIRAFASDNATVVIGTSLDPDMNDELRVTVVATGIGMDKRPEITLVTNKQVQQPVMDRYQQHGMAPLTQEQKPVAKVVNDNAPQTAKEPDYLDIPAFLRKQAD

B1: GST-MtNDK (Mycobacterium tuberculosis nucleoside diphosphate kinase) (enzyme)
chain: MTERTLVLIKPDGIERQLIGEIISRIERKGLTIAALQLRTVSAELASQHYAEHEGKPFFGSLLEFITSGPVVAAIVEGTRAIAAVRQLAGGTDPVQAAAPGTIRGDFALETQFNLVHGSDSAESAQREIALWFPGA
notes: also called GST-NDK; MtNDK-Wt
binding result [1]: binds | binding result [2]: binds
